According to PMC11863148:

Target: MERS-CoV nsp13 helicase (WT) (MERS-CoV, UniProt K9N7C7 5311-5908)
Test: EMSA

Sequence of MERS-CoV nsp13 helicase (WT) (K9N7C7 5311-5908): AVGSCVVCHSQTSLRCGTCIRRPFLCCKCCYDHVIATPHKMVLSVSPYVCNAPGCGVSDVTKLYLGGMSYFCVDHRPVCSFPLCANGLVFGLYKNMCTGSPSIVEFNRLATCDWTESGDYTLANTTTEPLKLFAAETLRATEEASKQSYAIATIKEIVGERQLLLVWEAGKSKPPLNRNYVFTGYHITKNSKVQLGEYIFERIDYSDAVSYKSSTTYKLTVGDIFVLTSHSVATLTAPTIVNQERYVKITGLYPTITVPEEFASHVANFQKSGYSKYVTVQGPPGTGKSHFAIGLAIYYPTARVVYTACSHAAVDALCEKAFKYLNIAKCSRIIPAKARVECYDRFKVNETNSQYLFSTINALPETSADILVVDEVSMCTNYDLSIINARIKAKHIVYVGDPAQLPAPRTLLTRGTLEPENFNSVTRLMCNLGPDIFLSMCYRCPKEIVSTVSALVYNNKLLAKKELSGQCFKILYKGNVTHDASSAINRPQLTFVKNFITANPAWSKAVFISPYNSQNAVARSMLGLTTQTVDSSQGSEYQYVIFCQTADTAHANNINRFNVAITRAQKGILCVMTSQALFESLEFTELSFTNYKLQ

B1: EMSA partial duplex, 18 bp with 5' (dT)21 overhang (dsDNA)
DNA 1: TTTTTTTTTTTTTTTTTTTTTCTGATGTTAGCAGCTTCG
DNA 2: CGAAGCTGCTAACATCAG
Q: Does B1 bind?
A: binds
